# Earlier results, collected in PMC11784315.
# Target: Spike S1 S1 (Severe acute respiratory syndrome coronavirus 2) (UniProt P0DTC2)
# Chain of DC-SIGN (Q9NNX6 whole entry): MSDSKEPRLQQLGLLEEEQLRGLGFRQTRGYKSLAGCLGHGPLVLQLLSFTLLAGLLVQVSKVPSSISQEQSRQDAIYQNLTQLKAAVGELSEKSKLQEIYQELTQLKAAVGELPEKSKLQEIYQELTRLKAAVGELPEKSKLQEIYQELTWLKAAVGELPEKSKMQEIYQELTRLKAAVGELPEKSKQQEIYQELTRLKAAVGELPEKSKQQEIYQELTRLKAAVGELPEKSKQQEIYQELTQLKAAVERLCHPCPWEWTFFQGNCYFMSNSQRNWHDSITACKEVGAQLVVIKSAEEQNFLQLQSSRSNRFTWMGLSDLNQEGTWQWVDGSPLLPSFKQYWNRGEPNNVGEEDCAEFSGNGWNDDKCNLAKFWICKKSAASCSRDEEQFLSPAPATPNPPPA
substance,measurement,value
DC-SIGN (from UniProt Q9NNX6),Kd,420 nM
